For this test, the target named is HLA-B*2705 heavy chain with the C-terminal sv5 epitope tag (human). The experiment in a line: two-dimensional gel electrophoresis (non-reducing) and immunoblot; 24-hour stimulated KG-1.B27sv5 cell lysates resolved under non-reducing conditions, immunoblot with HC10 or pK. (A western blot detects proteins with antibodies after separation by electrophoresis.)

As usually defined, the stoichiometry N is the number of molecules, sites or subunits per partner or assembly. Consider “HLA-B*2705 heavy chain with the C-terminal sv5 epitope tag (natural protein)”, for which the stoichiometry N worked out at 2.

Source of the values: paper PMC2575614.
